From the supplement of paper PMC9112550, “Optimization of the antimicrobial peptide Bac7 by deep mutational scanning” (BMC Biology, 2022)

Tested on: Escherichia coli TOP10
Experiment: shrunken log2 fold change of peptide-encoding DNA abundance (4.5 h post-induction vs induction); higher = less antimicrobial activity (less host growth inhibition)
Conditions: time post-induction: 4.5 h; library: site-saturation at positions 5, 18, 19, 20
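Also: peptides expressed intracellularly from a pBAD plasmid library in pooled LB shake-flask culture, induced with 0.3% L-arabinose, DNA abundance read by NGS, three biological replicates, DESeq2 with apeglm shrinkage.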

Sequence	shrunken log2 fold change
RRIRGRPPRLPRPRPRPGQVPRP	0.11
RRIRLRPPRLPRPRPRPAMCPRP	0.059
RRIRARPPRLPRPRPRPNTKPRP	-0.124
RRIRYRPPRLPRPRPRPNLDPRP	-0.148
RRIRIRPPRLPRPRPRPPTHPRP	-0.184
RRIRWRPPRLPRPRPRPPIHPRP	-0.448
RRIRARPPRLPRPRPRPKRFPRP	0.249
RRIRIRPPRLPRPRPRPHAGPRP	-0.242
RRIRERPPRLPRPRPRPFMWPRP	-0.262
RRIRNRPPRLPRPRPRPQNNPRP	-0.734
RRIRQRPPRLPRPRPRPQQRPRP	0.0983
RRIRNRPPRLPRPRPRPHYQPRP	-0.568
RRIRFRPPRLPRPRPRPVAVPRP	0.105
RRIRKRPPRLPRPRPRPYPAPRP	0.289
RRIRYRPPRLPRPRPRPEFRPRP	-0.0207
RRIRHRPPRLPRPRPRPAQAPRP	0.183
RRIRCRPPRLPRPRPRPCEPPRP	-0.221
RRIRKRPPRLPRPRPRPWAAPRP	0.473
RRIRDRPPRLPRPRPRPWVVPRP	0.0765
RRIRYRPPRLPRPRPRPPMNPRP	-0.728
RRIRWRPPRLPRPRPRPYYKPRP	-0.823
RRIRLRPPRLPRPRPRPSIEPRP	-0.602
RRIRNRPPRLPRPRPRPTYMPRP	-0.596
RRIRGRPPRLPRPRPRPFDSPRP	0.0127
RRIRFRPPRLPRPRPRPFAPPRP	0.0349

Sequence	shrunken log2 fold change
RRIRIRPPRLPRPRPRPSMMPRP	-0.886
RRIRPRPPRLPRPRPRPSPGPRP	0.0372
RRIRVRPPRLPRPRPRPSDAPRP	-0.203
RRIRSRPPRLPRPRPRPQYDPRP	-0.352
RRIRRRPPRLPRPRPRPIAAPRP	0.521
RRIRPRPPRLPRPRPRPFRSPRP	-0.152
RRIRMRPPRLPRPRPRPWDVPRP	0.0498
RRIRQRPPRLPRPRPRPHLCPRP	0.0292
RRIRMRPPRLPRPRPRPKQYPRP	0.146
RRIRFRPPRLPRPRPRPDGSPRP	-0.0167
RRIRCRPPRLPRPRPRPHWAPRP	0.244
RRIRYRPPRLPRPRPRPLVNPRP	-1.09
RRIRIRPPRLPRPRPRPEWVPRP	0.00655
RRIRHRPPRLPRPRPRPVAWPRP	0.252
RRIRYRPPRLPRPRPRPFPEPRP	-0.423
RRIRKRPPRLPRPRPRPLDMPRP	0.0395
RRIRLRPPRLPRPRPRPTYKPRP	-0.244
RRIRQRPPRLPRPRPRPHKVPRP	-0.481
RRIRPRPPRLPRPRPRPHKEPRP	0.163
RRIRDRPPRLPRPRPRPFSSPRP	-0.0177
RRIRCRPPRLPRPRPRPFNPPRP	-0.558
RRIRMRPPRLPRPRPRPHTNPRP	0.0722
RRIRRRPPRLPRPRPRPLPRPRP	0.748
RRIRKRPPRLPRPRPRPNGDPRP	-0.024
RRIRHRPPRLPRPRPRPEQQPRP	0.096

Sequence	shrunken log2 fold change
RRIRGRPPRLPRPRPRPVNSPRP	0.0202
RRIRKRPPRLPRPRPRPKIEPRP	-0.0694
RRIRKRPPRLPRPRPRPLIAPRP	0.456
RRIRPRPPRLPRPRPRPFIPPRP	-0.266
RRIRQRPPRLPRPRPRPKMWPRP	1
RRIRGRPPRLPRPRPRPRDTPRP	0.649
RRIRERPPRLPRPRPRPGRFPRP	0.0216
RRIRERPPRLPRPRPRPDDYPRP	-0.118
RRIRWRPPRLPRPRPRPCNGPRP	-0.0973
RRIRGRPPRLPRPRPRPAQAPRP	0.505
RRIRNRPPRLPRPRPRPHNYPRP	-0.968
RRIRCRPPRLPRPRPRPFFVPRP	-0.209
RRIRWRPPRLPRPRPRPDRYPRP	-0.0301
RRIRHRPPRLPRPRPRPMLVPRP	-0.155
RRIRERPPRLPRPRPRPDQFPRP	-0.154
RRIRGRPPRLPRPRPRPHLKPRP	0.378
RRIRHRPPRLPRPRPRPNWVPRP	-0.126
RRIRRRPPRLPRPRPRPAYRPRP	0.108
RRIRDRPPRLPRPRPRPCNHPRP	-0.218
RRIRKRPPRLPRPRPRPYVCPRP	-0.0742
RRIRYRPPRLPRPRPRPWVTPRP	-0.477
RRIRMRPPRLPRPRPRPSKMPRP	-0.0315
RRIRDRPPRLPRPRPRPQLCPRP	0.365
RRIRFRPPRLPRPRPRPPTEPRP	0.438
RRIRMRPPRLPRPRPRPHFNPRP	-0.0825

Sequence	shrunken log2 fold change
RRIRHRPPRLPRPRPRPCYWPRP	-0.026
RRIRIRPPRLPRPRPRPSNYPRP	-0.086
RRIRRRPPRLPRPRPRPVPIPRP	0.137
RRIRSRPPRLPRPRPRPYQNPRP	-0.511
RRIRWRPPRLPRPRPRPGQCPRP	0.00553
RRIRHRPPRLPRPRPRPSYTPRP	-0.714
RRIRYRPPRLPRPRPRPLITPRP	-0.749
RRIRKRPPRLPRPRPRPAHIPRP	-0.137
RRIRMRPPRLPRPRPRPGARPRP	1.11
RRIRHRPPRLPRPRPRPLIVPRP	-0.314
RRIRNRPPRLPRPRPRPPPSPRP	1
RRIRCRPPRLPRPRPRPRFVPRP	0.15
RRIRLRPPRLPRPRPRPHVVPRP	0.00383
RRIRKRPPRLPRPRPRPRGHPRP	0.189
RRIRGRPPRLPRPRPRPNCQPRP	0.458
RRIRWRPPRLPRPRPRPNALPRP	0.15
RRIRWRPPRLPRPRPRPCVSPRP	0.144
RRIRWRPPRLPRPRPRPYNSPRP	-0.178
RRIRRRPPRLPRPRPRPCVCPRP	0.082
RRIRTRPPRLPRPRPRPTHRPRP	-0.185
RRIRIRPPRLPRPRPRPWKTPRP	-0.197
RRIRGRPPRLPRPRPRPMCFPRP	0.716
RRIRARPPRLPRPRPRPDHKPRP	-0.312
RRIRHRPPRLPRPRPRPRWDPRP	0.127
RRIRFRPPRLPRPRPRPAWVPRP	0.255

Sequence	shrunken log2 fold change
RRIRRRPPRLPRPRPRPIYWPRP	0.08
RRIRQRPPRLPRPRPRPIESPRP	-0.181
RRIRDRPPRLPRPRPRPRIDPRP	0.0784
RRIRPRPPRLPRPRPRPIHEPRP	0.152
RRIRKRPPRLPRPRPRPAFNPRP	-0.169
RRIRWRPPRLPRPRPRPSFAPRP	0.28
RRIRGRPPRLPRPRPRPPYSPRP	-0.084
RRIRARPPRLPRPRPRPQYNPRP	-0.334
RRIRHRPPRLPRPRPRPPHNPRP	0.348
RRIRCRPPRLPRPRPRPPRAPRP	0.934
RRIRSRPPRLPRPRPRPWTQPRP	0.149
RRIRTRPPRLPRPRPRPDRFPRP	0.0382
RRIRMRPPRLPRPRPRPLWRPRP	0.704
RRIRLRPPRLPRPRPRPFFGPRP	0.246
RRIRVRPPRLPRPRPRPKRAPRP	0.553
RRIRQRPPRLPRPRPRPEMAPRP	-0.0608
RRIRARPPRLPRPRPRPKSVPRP	0.0188
RRIRERPPRLPRPRPRPLVMPRP	-0.0346
RRIRVRPPRLPRPRPRPIAFPRP	-0.207
RRIRWRPPRLPRPRPRPENGPRP	-0.109
RRIRRRPPRLPRPRPRPPKCPRP	0.423
RRIRFRPPRLPRPRPRPYPNPRP	-0.152
RRIRQRPPRLPRPRPRPRQVPRP	0.302
RRIRYRPPRLPRPRPRPIPFPRP	-1.53
RRIRDRPPRLPRPRPRPTFHPRP	-0.148
